Tests used:
[1] = biological target: SNAP-25 peptide comprising amino acids 134-206 of SEQ ID NO:5 (human); experiment: SPR (BIAcore 3000), peptide on CM5 chip, 1:1 fit
[2] = biological target: SNAP-25 peptide comprising amino acids 134-197 of SEQ ID NO:5 (human); experiment: SPR (BIAcore 3000), peptide on CM5 chip, 1:1 fit

Substance	Kd [1] [µM]	koff [1] [s⁻¹]	kon [1] [M⁻¹ s⁻¹]	Kd [2] [µM]	koff [2] [s⁻¹]	kon [2] [M⁻¹ s⁻¹]
MC-6050 mouse α-SNAP-25 monoclonal antibody (Research & Diagnostic Antibodies)	19.8	0.00607	306	0.000497	0.000882	1.78e+06
MC-6053 mouse α-SNAP-25 monoclonal antibody (Research & Diagnostic Antibodies)	0.24	2.56e-05		0.000508	0.00118	2.32e+06

— patent US20170248602A1
